According to patent US20240174744A1 (SCIRHOM, published 2024):
Where a chain is given by its changes, count along the chain named.

T1: human iRhom2 (inactive rhomboid protein 2, isoform 1), endogenously expressed on human cells (human, UniProt Q6PJF5 1-856)
T1 sequence: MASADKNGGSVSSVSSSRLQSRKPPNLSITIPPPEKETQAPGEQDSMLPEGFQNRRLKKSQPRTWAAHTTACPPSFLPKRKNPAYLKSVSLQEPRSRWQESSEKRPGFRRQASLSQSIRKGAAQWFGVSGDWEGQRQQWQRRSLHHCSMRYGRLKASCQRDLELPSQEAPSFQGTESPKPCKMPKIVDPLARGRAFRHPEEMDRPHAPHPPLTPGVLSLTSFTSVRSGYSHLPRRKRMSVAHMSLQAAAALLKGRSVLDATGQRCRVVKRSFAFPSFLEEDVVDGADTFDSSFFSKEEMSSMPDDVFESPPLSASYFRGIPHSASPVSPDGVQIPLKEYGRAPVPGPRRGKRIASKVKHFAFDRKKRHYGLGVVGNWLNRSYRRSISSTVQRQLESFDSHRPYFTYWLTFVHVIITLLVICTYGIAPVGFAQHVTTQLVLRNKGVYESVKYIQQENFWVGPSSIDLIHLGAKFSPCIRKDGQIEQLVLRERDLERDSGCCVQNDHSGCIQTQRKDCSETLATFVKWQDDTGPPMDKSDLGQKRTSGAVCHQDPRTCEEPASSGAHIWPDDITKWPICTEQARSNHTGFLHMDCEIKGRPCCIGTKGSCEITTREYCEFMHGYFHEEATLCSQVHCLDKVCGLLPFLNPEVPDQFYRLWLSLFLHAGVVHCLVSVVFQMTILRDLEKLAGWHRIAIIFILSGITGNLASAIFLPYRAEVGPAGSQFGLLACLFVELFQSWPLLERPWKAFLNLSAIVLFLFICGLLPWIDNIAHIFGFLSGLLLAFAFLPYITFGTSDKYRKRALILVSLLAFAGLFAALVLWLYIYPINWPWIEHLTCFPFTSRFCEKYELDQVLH

T2: dog iRhom2 full length wild type, C-terminally tagged with 3 consecutive copies of the T7 epitope (dog, UniProt Q00M95 1-827)
T2 construct: whole, on cells; also called Dog-iR2-FL-WT-T7
T2 sequence: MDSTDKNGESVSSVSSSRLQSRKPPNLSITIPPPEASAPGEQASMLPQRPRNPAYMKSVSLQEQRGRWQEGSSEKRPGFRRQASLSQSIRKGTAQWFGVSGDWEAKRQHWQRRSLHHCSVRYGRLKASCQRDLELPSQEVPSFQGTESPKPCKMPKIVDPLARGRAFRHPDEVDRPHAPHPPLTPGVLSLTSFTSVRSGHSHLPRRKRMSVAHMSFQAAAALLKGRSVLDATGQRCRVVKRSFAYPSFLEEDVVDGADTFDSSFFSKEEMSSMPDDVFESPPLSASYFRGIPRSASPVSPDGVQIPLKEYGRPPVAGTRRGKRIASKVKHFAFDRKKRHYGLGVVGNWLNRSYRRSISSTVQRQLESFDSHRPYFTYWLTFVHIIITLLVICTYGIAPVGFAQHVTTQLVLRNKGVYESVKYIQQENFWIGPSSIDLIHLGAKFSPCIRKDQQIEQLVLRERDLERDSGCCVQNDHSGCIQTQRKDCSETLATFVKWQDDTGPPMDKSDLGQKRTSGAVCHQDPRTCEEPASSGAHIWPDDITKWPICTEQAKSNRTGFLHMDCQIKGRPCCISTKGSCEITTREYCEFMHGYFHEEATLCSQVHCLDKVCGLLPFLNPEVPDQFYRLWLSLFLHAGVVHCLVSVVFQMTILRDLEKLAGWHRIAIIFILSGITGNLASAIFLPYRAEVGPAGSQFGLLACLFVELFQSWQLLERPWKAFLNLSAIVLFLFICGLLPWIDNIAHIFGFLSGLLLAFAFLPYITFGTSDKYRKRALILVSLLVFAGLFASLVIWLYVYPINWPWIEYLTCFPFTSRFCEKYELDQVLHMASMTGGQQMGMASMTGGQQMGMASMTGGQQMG

B1: antibody 57 (antibody, V domains shown)
VH: QVTLKESGPGILQPSQTLSLTCSFSGFSLSTFGMGVGWIRQPSGKGLEWLAHIWWDDDKYYNPALKSRLTISKDTSKNQIFLKIANVDTADSATFYCARIENYGSNYWYFDVWGTGTTVTVSS
VL: QIVLTQSPAIMSASPGEKVTMTCSASSSVSYMYWYQQKPGSSPRVLIYDTSNLASGVPVRFSGSGSGTSYSLTVSRMEAEDAATYYCQQWNSYPLTFGAGTKLELK
notes: Mouse IgG, kappa light chain; also called clone #57
B2: antibody 54 (antibody, V domains shown)
VH: B1 VH with M34L, W49C, Y61S, I80V, T89S, S92T, F95Y, Y96F, E101L
VL: B1 VL with I10L, V29I, V45L, Y70F
notes: Mouse IgG, kappa light chain; also called clone #54
B3: antibody 49 (antibody, V domains shown)
VH: B1 VH with K66Q, I71V, S76A, I80V, S92T, T94I, F95Y, I100V, E101G, D111A
VL: B1 VL with V45L, V74I
notes: Mouse IgG, kappa light chain; also called clone #49
B4: antibody 56 (antibody, V domains shown)
VH: B1 VH with A51T, H52N, P63S, A64V, I80V, S92T, F95Y, E101A, N102A
VL: B1 VL with A54S, V74I, N91S
notes: Mouse IgG, kappa light chain; also called clone #56
B5: antibody 46 (antibody, V domains shown)
VH: QVTLKESGPGILQPSQTLSLTCSFSGFSLSTFGMGVGWIRQPSGKGLEWLAHIWWDDDNYYNQALKSRLTISKDNTKNQVFLNIANVDTADTATYYCARIRSYDYDVRYAMDYWGQGTSVTVSS
VL: DIKMTQSPSSMYASLRERVTITCKASQDINSYLSWFQQKPGKSPKTLIYRANRLVDGVPSRFSGSGSGQDYSLTISSLEYEDLGIYYCQQYYEFPLTFGAGTRLELK
notes: Mouse IgG, kappa light chain; also called clone #46

The binders below were run against T1, human iRhom2 (inactive rhomboid protein …) (assay: cell-based or functional assay).
B1 was tested, and the “inhibition of LPS-induced release of TNFα from THP-1 cells, recombinant antibody” value (from here on “inhibition”) was 59.7 % inhibition. In the case of B2, the “inhibition” value is reported as 67.9 % inhibition. In the case of B3, the “inhibition” value is reported as 59.9 % inhibition. For B4, the “inhibition” value was 65.8 % inhibition. With B5 the “inhibition” value was 36.1 % inhibition.

What follows are binders tested against T2, dog iRhom2 full length wild type, … (assay: FACS, MEF-DKO-Dog-iR2-FL-WT-T7 cells).
Protocol: In brief, immortalized MEF-DKO-EV control cells, MEF-DKO-rhesus-iR2-FL-WT-T7 cells, MEF-DKO-cyno-iR2-FL-WT-T7 cells, MEF-DKO-dog-iR2-FL-WT-T7 cells and MEF-DKO-rabbit-iR2-FL-WT-T7 cells, as well as their respective iRhom1 counterparts, were harvested with 10 mM EDTA in PBS, washed and resuspended in FACS buffer (PBS, 3% FBS, 0.05% sodium azide), and seeded in Nunc U-bottom 96-well plates (Thermo Fisher Scientific, USA) at approximately 3×10⁵ cells per well. To pellet cells and remove supernatants, the plates were centrifuged at 1,500 rpm and 4° C. for 3 minutes. For primary staining, cells were resuspended in 100 μl per well of either FACS buffer alone (controls), mouse monoclonal anti-T7 IgG (Merck Millipore, USA) at 3 μg/ml FACS buffer or the antibodies of the present disclosure also at 3 μg/ml FACS buffer and incubated on ice for 1 hour. Afterwards, plates were centrifuged at 1,500 rpm and 4° C. for 3 minutes and washed twice with 200 μl per well of FACS buffer. For secondary staining, cells were spun down and resuspended in 100 μl per well of PE-conjugated goat anti-mouse IgG F(ab′)2 detection fragment (Dianova, Germany) diluted 1:100 in FACS buffer. Protected from light, the cell suspensions were incubated on ice for 1 hour. Plates were then centrifuged at 1,500 rpm and 4° C. for 3 minutes and washed three times with 200 μl per well of FACS buffer. Finally, cells were resuspended in 150 μl per well of FACS buffer and analyzed using a BD Accuri™ C6 Plus flow cytometer (Becton Dickinson, Germany).
B1: binds. B2: binds. B3: binds. B4: binds. B5: binds.
